What was measured:
[1] = molecular target: H3N2 A/Moscow/10/1999 HA on infected MDCK-SIAT1 cells (Influenza A virus H3N2 A/Moscow/10/1999, UniProt I6SI59, strain); assay: flow cytometry on cells; conditions: one partner purified
[2] = molecular target: T1, H3N2 A/Hong Kong/1/1968 HA protein (Influenza A virus H3N2 A/Hong …, UniProt Q91MA7, strain); assay: ELISA; conditions: both partners purified
T1 construct: source: bought: SinoBiological

[3] = molecular target: H14N5 A/mallard/Astrakhan/263/1982 HA protein (Influenza A virus H14N5 …, UniProt P26136, strain); assay: ELISA; conditions: both partners purified

| Binder | binding result [1] | binding result [2] | binding result [3] |
| --- | --- | --- | --- |
| 240-14 IgA 2F02 IgG (antibody, V domains shown, source: Expi293F, transfected, purified (CaptureSelect CH1-XL beads); copies: 2 + 2) VH: EVQLLESGGGLVQPGGSLRLSCAASGFTFSTYAMSWVRQAPGKGLEWVSTISGSGGSTYDAESVKGRFTISRDNSKNTLYLQMNSLRAEDTAVYYCAKEGGDFWSGYYANWFDPWGQGTLVTVSS VL: QSALTQPRSVSGSPGQSVTISCTGTRSDVGGYNYVSWYQQHPGKAPKVIIYDVKKRPSGVPDRFSGSKSGNTASLTISGLQAEDEADYYCSAFAGSHTLFGGGTKVTVL | binds | binds |  |
| AG2-G02 IgG (antibody, V domains shown, copies: 2 + 2) VH: VQLVQSGAEMKKPGASVKVSCKASGYTFSAYYIHWVRQAPGQGLEWMGRINTDSGGTNFAQQFEGRVTMTRDTSISTAYMELSSLRSDDTAVYYCARGYDFWLGSYRAGGWFDPWGQGTLVTVSS VL: not shown | binds |  | no binding (tested: 10 μg mL^−1) |

Reference: paper PMC12658140 (Nature Communications, 2025)
